Consider 6 substances from US9301997B2, “Method of vaccination for limiting articular inflammation in rheumatoid arthritis and multiple sclerosis by administering IL-23 peptides” (PEPTINOV SAS, priority 2009, dated 2016).

For assay [1], the target named is T1, murine IL-23 (Mus musculus, UniProt Q9EQ14).
T1 sequence (Q9EQ14 22-196): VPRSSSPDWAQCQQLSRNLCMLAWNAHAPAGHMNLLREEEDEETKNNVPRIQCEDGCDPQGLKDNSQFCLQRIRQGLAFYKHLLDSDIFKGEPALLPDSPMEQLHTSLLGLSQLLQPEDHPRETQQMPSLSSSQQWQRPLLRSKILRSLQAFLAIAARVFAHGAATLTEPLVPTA
T1 sequence (P43432 23-335 partner): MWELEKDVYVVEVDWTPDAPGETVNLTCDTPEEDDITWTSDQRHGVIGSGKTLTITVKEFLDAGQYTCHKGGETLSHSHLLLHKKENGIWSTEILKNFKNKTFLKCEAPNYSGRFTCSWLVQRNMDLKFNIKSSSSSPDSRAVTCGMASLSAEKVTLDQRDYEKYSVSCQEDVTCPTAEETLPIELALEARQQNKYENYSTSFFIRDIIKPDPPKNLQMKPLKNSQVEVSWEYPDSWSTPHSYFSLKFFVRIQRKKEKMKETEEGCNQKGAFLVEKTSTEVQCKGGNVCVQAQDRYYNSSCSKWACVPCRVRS
Description: Neutralization assay for murine IL-23 (IL-17 secretion by purified mouse splenocytes). Type of assay: cell-based. The note with it: purified IgG of immunized rabbits, result in words. From the text: The same IgG fraction from 4 immunized rabbits used in example 2 is used for a test of neutralization of the murine IL-23 cytokine. The test for murine IL-23 is based on the fact that purified mouse splenocytes secrete IL-17 in a dose dependent fashion, in response to the stimulation with bioactive […] IL-23 (cf. FIG. 3). One sees that the IgG fraction of rabbits immunized against the human IL-23 peptide can neutralize the biological activity of murine IL-23 in a dose-dependent fashion. Each bar represents the mean of the tests performed with the 4 purified antibodies; the standard deviation is also indicated. There are two negative controls (no mouse IL-23 and no inhibitor) and a positive control with an anti-murine IL-23 neutralizing antibody sold from the company R&D Systems (# ref: AF1619).
(§1) Four New Zealand rabbits were immunized with the cyclised peptide Y-C-KGE PAL LPD SP-C derived from the murine IL-23, similarly as in the protocol described in Example 1. The peptide was coupled with KLH via BDB and a supplementary tyrosine. The sera of the animals were purified by affinity column against protein A and the purified antibodies were tested in ELISA and in neutralisation assays. For ELISA, plates were coated either with murine or with human IL-23 and individual sera were tested at different dilutions to determine the Titer50. […]

Assay [2] has as its target T2, human IL-23 (Homo sapiens, UniProt Q9NPF7).
T2 sequence (Q9NPF7 20-189): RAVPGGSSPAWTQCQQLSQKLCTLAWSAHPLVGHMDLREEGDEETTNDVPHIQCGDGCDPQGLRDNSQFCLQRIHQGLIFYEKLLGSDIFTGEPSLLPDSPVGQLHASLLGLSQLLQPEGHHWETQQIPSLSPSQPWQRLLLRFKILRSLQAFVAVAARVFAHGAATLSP
T2 sequence (P29460 23-328 partner): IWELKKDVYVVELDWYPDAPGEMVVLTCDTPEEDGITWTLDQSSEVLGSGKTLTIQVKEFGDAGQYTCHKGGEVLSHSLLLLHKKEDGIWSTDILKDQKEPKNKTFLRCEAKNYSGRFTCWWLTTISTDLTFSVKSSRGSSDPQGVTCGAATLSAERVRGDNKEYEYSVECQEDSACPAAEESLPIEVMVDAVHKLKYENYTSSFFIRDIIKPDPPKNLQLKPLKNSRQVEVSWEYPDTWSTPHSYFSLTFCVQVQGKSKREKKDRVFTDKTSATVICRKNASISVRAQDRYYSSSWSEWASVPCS
The assay can be described thus: Neutralization assay for human IL-23 (IL-17 secretion by purified mouse splenocytes). The assay is classed as cell-based. Conditions: for Neutralization of the biological activity of human IL-23: purified IgG of immunized rabbits, result in words; for Average % neutralization, SD: purified rabbit antibodies at a dilution of 1/20, 1 ng/mL bioactive hIL-23. The method, then:
The neutralization capacity of the purified total IgG fraction derived from the 4 immunized rabbits of example 1 was then tested in a neutralization assay for human IL-23. The test is based on the fact that purified mouse splenocytes secrete IL-17 in a dose dependent fashion, in response to the stimulation with bioactive human IL-23 (cf. FIG. 2). On the x-axis one can see the various dilutions of the IgG tested and on the y-axis the production of IL-17 as an optical density value. One sees that the IgG fraction of rabbits immunized against the peptide neutralize the biological activity of human IL-23 in a dose-dependent fashion. Each bar represents the mean of the tests performed with the 4 purified antibodies; the standard deviation is also indicated. The experimental conditions comprise two negative controls (no human IL-23 and no inhibitor) and a positive control with an anti-hIL-23 neutralizing antibody sold from the company R&D Systems (# ref: AF1716).
(§2) Four New Zealand rabbits were immunized with the cyclised peptide Y-C-KGE PAL LPD SP-C derived from the murine IL-23, similarly as in the protocol described in Example 1. The peptide was coupled with KLH via BDB and a supplementary tyrosine. The sera of the animals were purified by affinity column against protein A and the purified antibodies were tested in ELISA and in neutralisation assays. For ELISA, plates were coated either with murine or with human IL-23 and individual sera were tested at different dilutions to determine the Titer50. The titer corresponds to the dilution corresponding yielding an OD value at 50% of the maximal OD score (obtained for the smallest dilution, 1/50e). In parallel, different dilutions of the purified rabbit antibodies were tested on IL-23 neutralisation assays, similarly as in Examples 2, 3, and 4. Table 1 presents the average neutralisation obtained for the 4 purified antibodies rabbit at a dilution of 1/20 and in the presence of 1 ng/mL of bioactive mIL-23 or hIL-23.

The test system of assay [3] is collagen-induced arthritis. The assay can be described thus: Collagen-induced arthritis mouse model of rheumatoid arthritis, vaccination. The assay is classed as in vivo. Conditions: DBA/1 mice. The source says: The collagen-induced arthritis is a well-known model of rheumatoid arthritis, which reproduces the main features characterizing the human disease. The experimental disease is induced in the animal by two successive injections of type II bovine collagen in the tail. Clinical signs of disease occur a few days later, principally marked by a severe articular inflammation and the joint destruction. The articular inflammation can be quantified and reported as clinical scores by the person of the art: a score from 0 (no clinical sign) to 4 (total inflammation) is given for each articulation of each mouse. Groups of 10 mice are compared by the mean value of the scores obtained on […]. Similarly, the articular inflammation and destruction can be observed on histological sections of joints and be reported as histological scores by the person of the art.
DBA/1 mice (n=10 per treatment group) were vaccinated two weeks before the first injection of collagen either with the cyclised peptide derived from mIL23: C-DSD IFK GEP ALL PDS PME QL-C-Y (coupled with KLH via BDB and an additional tyrosine on the C-terminus), or with a control made of KLH alone, or with PBS alone. The injected dose in each mice corresponded to 100 μg of coupled peptide for the peptide group, and to 100 μg of KLH alone for the KLH control group, all in complete Freund's adjuvant. […]

Assay [4] deals with experimental autoimmune encephalomyelitis. The assay can be described thus: Experimental autoimmune encephalomyelitis mouse model of multiple sclerosis, vaccination. Conditions: C57BL/6 mice, 100 μg/animal s.c. 4 times, 30 days follow-up, versus carrier and PBS groups, p=0.0003. The assay is classed as in vivo. On the procedure: The experimental autoimmune encephalomyelitis in mice is a well-known model of multiple sclerosis. Three groups of 12 C57BL/6 mice were injected 4-times (s.c.) either with 1/100 μg/animal of the same peptide derivative of murine IL-23 as in example 9 coupled with KLH and emulsioned in CFA for the initial immunization and IFA (ISA51) for the subsequent boosts, or with 2/the carrier protein prepared in the same conditions, or with 3/PBS alone. The injections took pace at day 0, 15, 30 and 45.
To induce the experimental disease, mice were immunized (s.c.) at two sites with 200 μg of MOG peptide 35-55 in […] of Complete Freund's Adjuvant (CFA) at day 60. On the same day and after two days, mice were injected (i.p.) with, respectively 75 and 200 ng/mouse, of pertussis toxin (List Biological Laboratories). The mice were then assessed daily for clinical signs of EAE according to the following well-known scoring method (Sinha et al., J. Immunol., 2008): 0, normal; 0.5, limp tail; 1, tail paralysis; 2, mono or paraparesis of the hind limbs; 3, mono or paraplegia of the hind limbs; 4, paraplegia of the forelimb; 5, moribund condition or death. The follow-up was done on a period of 30 days as shown (cf. FIG. 7).

In assay [5] the target is T2, human IL-23. The assay can be described thus: ELISA of purified rabbit antibodies on plates coated with human IL-23. The assay is classed as binding. Conditions: for Recognition of human IL-23 by antibodies raised against the peptide (ELISA): antibodies of immunized rabbits, result in words; for Average Titers50 (ELISA), SD: purified antibodies of rabbits immunized with the KLH-coupled peptide, plate coated with human IL-23, dilution yielding 50% of maximal OD. The method, then: (§3) Specific-pathogen-free New Zealand rabbits (n=4) are immunized with 100 μg of a peptide derivative of human IL-23 by five immunizations in CFA/IFA at day 0, 14, 28, 56 and 70. The peptide, whose sequence is C-GSD IFT GEP SLL PDS PVG QL-C-Y, was coupled to KLH with BDB. The sera from immunized rabbits were taken at day 82 after initial immunization, and the antibodies were purified by affinity chromatography against protein A. The purified antibodies were tested by ELISA at various dilutions and on a plate coated either by human IL-23 or by murine IL-23 (cf. FIG. 1). The mean OD value of the […] purified sera is given at the various dilutions for the ELISA tests against murine IL-23 (dotted line) and against human IL-23 (regular line).
as §2

Assay [6] addresses T1, murine IL-23. The assay can be described thus: ELISA of purified rabbit antibodies on plates coated with murine IL-23. The assay is classed as binding. Conditions: antibodies of immunized rabbits, result in words. On the procedure: as §3, §1
For assay [7], the target named is T1, murine IL-23. The assay can be described thus: Auto-antibody response against murine IL-23 in immunized mice (serum ELISA). Type of assay: in vivo. Conditions: OF1 mice immunized intra-muscularly, 100 μg/injection, sera tested at 1/500. The method, then: A peptide of murine IL-23 is coupled to KLH in the presence of a coupling agent (BDB). The peptide has been cyclised thanks to the addition of 2 cysteine residues coupled to BDB through an additional tyrosine; its amino-acid sequence is: C-DSD IFK GEP ALL PDS PME QL-C-Y. The vaccinal composition is injected intra-muscularly […] in ten (10) OF1 mice, at a dose of 100 μg/injection once every 2 weeks at days 0, 15, 30, 45. The sera of the animals are taken after the boosts at days 20, 38, 60 and 80 and are tested by ELISA at a dilution of 1/500 and on a coating of murine IL-23. The ELISA results are given as optical density (OD450nm) values. FIG. 5 presents the mean OD450nm value obtained at each time-point for the 10 mice tested. The grey line represents the response of mice immunized with the peptide derivative of IL-23 (triangles). The dotted lines represents the response of control mice immunized with the vehicle (empty grey diamonds), and control mice immunized with the carrier protein only (empty grey squares).

Turning to C-DSD IFK GEP ALL PDS PME QL-C, on murine IL-23 [1], the “Neutralization of the biological activity of murine IL-23” value was “can neutralize mIL-23”. In addition, at human IL-23 [2], the “Neutralization of the biological activity of human IL-23” value is reported as “cross-neutralize hIL-23”.
Turning to C-DSD IFK GEP ALL PDS PME QL-C-Y, in assay [3] (100 μg coupled peptide in CFA plus boosts in IFA, followed until day 80, versus KLH alone or PBS), the “Clinical scores of articular inflammation” value is “statistically significant protection at the late stage of disease”. Also, the “Histological scores of articular inflammation and destruction” value in assay [3] (histological sections of joints) is “limits the extent of both the articular inflammation and destruction at the histological level”. Also, the “Clinical signs of EAE (disease activity score)” value in assay [4] is on record as “statistically significant lower disease activity than the two control groups”.
As to “C-GSD IFT GEP SLL PDS PVG QL-C-Y (GSDIFTGEPSLLPDSPVGQL; not fully specified; terminal cysteines and C-terminal tyrosine; listed as Homo Sapiens) [peptide derivative of human IL-23 subunit p19, region Gly105 to Leu124, with two terminal cysteines and a C-terminal tyrosine]”, the “Recognition of human IL-23 by antibodies raised against the peptide (ELISA)” value with human IL-23 [5] was “could generate antibodies recognizing the whole human IL-23 cytokine”. For the same substance, the “Neutralization of the biological activity of murine IL-23” value with murine IL-23 [1] is on record as “neutralize its biological activity”. Also, the “Neutralization of the biological activity of human IL-23” value in the assay with human IL-23 [2] is on record as “could neutralize the biological activity of the human cytokine”. The “Recognition of murine IL-23 by antibodies raised against the peptide (ELISA)” value with murine IL-23 [6] is given as “could recognize the murine IL-23 cytokine”.
Regarding “C-LPD SP-C-Y (CLPDSPCY; sub-sequence of seq ID NO2 with N-terminal cystein and C-terminal cystein and tyrosin) [CLPDSPC-Y, peptide 2 derived from hIL-23]”, the “Average Titers50 (ELISA), SD” value with human IL-23 [5] was found to be 2287 ± 175. Also, the “Average % neutralization, SD” value with human IL-23 [2] turned out to be 39 ± 11%.
The like results for “CTGEPSC (sub-sequence of seq ID NO2 with C-terminal and N-terminal cystein) [C-TGE PS-C, peptide 1 derived from hIL-23]” were, in that order, 1758 ± 153 and 35 ± 7%.
Regarding “DSD IFK GEP ALL PDS PME QL (DSDIFKGEPALLPDSPMEQL; Mus Musculus) [peptide derivative of mouse IL-23p19]”, the “Recognition of human IL-23 by antibodies raised against the peptide (ELISA)” value in the assay with human IL-23 [5] is “could recognize both the murine and human IL-23 cytokines”. Also, in the assay with murine IL-23 [6], the “Recognition of murine IL-23 by antibodies raised against the peptide (ELISA)” value was “could recognize both the murine and human IL-23 cytokines”. In the assay with murine IL-23 [7], the “Generation of anti-mIL-23 antibodies in mice” value is recorded as “anti-mIL-23 Abs could be generated in mice”.
